# From patent publication US20210253711A1
# Target: MICA antigen of Table 2 (purified 6×His-MICA*08 or 6×His-MICA*04) (UniProt Q29983)
# Test: BLI (Octet Red96), mAb captured on anti-mouse IgG Fc biosensors, His-tagged MICA in solution, 1:1 model
Binder,Kd [nM],koff [s⁻¹],kon [M⁻¹ s⁻¹]
"3F9.E4 (antibody, V domains shown) VH: EVQLQESGEGLVKPGGSLKLSCAASGFTFSNYAMSWVRQTPEKRLEWVAYISPGGDYIYYADTVKGRFTISRDNARNTLYLQMSSLKSEDTAMYYCTTDRRHYGSYAMDYWGQGISVTVSS VL: DIVMTQAAPSVPVTPGESVSISCRSSKSLLHSNGNTYLYWFLQRPGQSPQLLIYRMSNLASGVPDRFSGSGSGTAFTLRISRVEAEDVGVYYCMQHLEYPFTFGSGTKLEIK",1.18,0.000421,383000
"16F10.C12 (antibody, V domains shown) VH: EVQLQESGPGLVAPSQSLSITCTVSGFSLTAFGVNWVRQPPGKGLEWLGMIWGDGNTDYNSTLRSRLSISKDNSKSQVFLKLNSLQTDDTARYFCARETYYGNYAGLGYWGQGTLVTVSA VL: QIVLTQSPAIMSASIGERVTMTCTASSSVSSNYLHWYQQKPRSSPKLWIYTTSNLASGVPTRFSGSGSGTSYSLTISSMEAEDAATYYCHQFHRSPFTFGSGTKLEIK",6.45,0.000548,93300
